Experiments:
[1] = biological target: T1, bacterially produced HIS-RNF168 (human, UniProt Q8IYW5 1-571); test: pull-down; GST fusion (1 μg) with HIS-tagged fusion (1 μg) in 500 μl NETN buffer (20 mM Tris-HCl pH 8.0, 0.15 M NaCl, 1 mM EDTA, 0.5% NP-40) at 4°C overnight; Glutathione-Sepharose beads; conditions: both partners purified
T1 construct: E3 ligase RNF168, human; the bacterial construct is not described; source: bacterially produced

[2] = biological target: bacterially produced HIS-LSD1 (human, UniProt O60341 1-852); test: as above; conditions: both partners purified

- binding result [1]: binds
- binding result [2]: binds
B1: bacterially produced GST-53BP1-KBD (domain or fragment, human, UniProt Q12888 1234-1616, looked up)
chain: HVLHRHMRTIREVRTLVTRVITDVYYVDGTEVERKVTEETEEPIVECQECETEVSPSQTGGSSGDLGDISSFSSKASSLHRTSSGTSLSAMHSSGSSGKGAGPLRGKTSGTEPADFALPSSRGGPGKLSPRKGVSQTGTPVCEEDGDAGLGIRQGGKAPVTPRGRGRRGRPPSRTTGTRETAVPGPLGIEDISPNLSPDDKSFSRVVPRVPDSTRRTDVGAGALRRSDSPEIPFQAAAGPSDGLDASSPGNSFVGLRVVAKWSSNGYFYSGKITRDVGAGKYKLLFDDGYECDVLGKDILLCDPIPLDTEVTALSEDEYFSAGVVKGHRKESGELYYSIEKEGQRKWYKRMAVILSLEQGNRLREQYGLGPYEAVTPLTKAAD
notes: The limits 1234-1616 are printed for the 53BP1-KBD cDNA clone put into pcDNA3.0; the bacterial construct itself is not described; source: bacterially produced

Reference: article PMC4499147, “Modulation of LSD1 phosphorylation by CK2/WIP1 regulates RNF168-dependent 53BP1 recruitment in response to DNA damage” (Nucleic Acids Research, 2015)
